Experimental data taken from patent publication US20150140043A1, “IMMUNOMODULATORY METHODS USING NOTCH AGONISTS” (INSTITUT NATIONAL DE LA SANTE DE LA RECHERCHE MEDICAL …, priority 2012, published 2015).

Columns and labels:
[1] = system: CD4+CD25- T cell proliferation; experiment: Suppression assay: CD4+CD25- T cells co-cultured with Treg plus anti-CD3, with or without g-secretase inhibitor, [3H]thymidine incorporation; type: cell-based, human; settings: for Treg-mediated suppression (percentage of inhibition of CD4+CD25- T cell proliferation): GSI added at the beginning of the coculture (10 μM), anti-CD3 1 μg/ml, 5 days, mean+/-SD
Method: FIG. 1: NOTCH signalling is involved in Treg mediated inhibition of anti-CD3 stimulated CD4^+CD25^− T cell proliferation • A) Various ratio of CD4^+CD25^− T cells and CD4^+CD25^high T cells were cultured for 5 days in coated wells with anti-CD3 (1 μg/ml) in the presence or not of inhibitor of g-secretase (GSI 10 μM). Percentages of inhibition were calculated from the raw data using the equations: 1—(mean cpm of co-culture wells divided by mean cpm of CD4^+CD25^− cells cultured alone)×100. The data represent the mean±SEM and are representative of 5 independent experiments. * indicates P<0.05. • B) CD4^+CD25^−T cells were cultured for 18 hours in coated wells with anti-CD3 and NOTCH ligands (5 μg/ml) or IgG control (5 μg/ml). Then, T cells were washed and incubated for 5 days in coated wells with anti-CD3 in the absence or presence of Treg at ratio 1:8. The data represent the mean±SEM of inhibition of T cell proliferation of 5 independent experiments.
Peripheral blood mononuclear cells were separated by Ficoll-Hypaque centrifugation (Amersham Biosciences) from buffy coats obtained from healthy blood donors (EFS, Créteil). CD4^+ CD25^− T cells and CD4^+CD25^high T cells were isolated using a CD4^+ T cell enrichment column and a human CD4^+CD25^+ Treg isolation kit purchased from Miltenyi Biotec. CD4^+CD25^− cells and CD4^+CD25^+ cells were enriched to greater than 95% purity. […]
A total of 2.5×10^4 CD4^+CD25^− T cells were cultured with various ratios of CD4^+CD25^high cells and 1 μg/ml of anti-CD3 for 5 days, in the presence or absence of 10 μm of the gamma-secretase inhibitor Compound E. A total of […] [^3H] thymidine (Amersham Pharmacia) was added to the wells during the last 16 hours of culture. The cells were then harvested and assessed for [^3H] thymidine incorporation using a liquid scintillation counter. Results were expressed as mean cpm of quadriplicate culture wells.
Percentage of inhibition was calculated as follows: 1−(mean cpm of co-culture wells divided by mean cpm of CD4^+CD25^− cells cultured alone)×100. […]

TGF-βRII RNA expression = experiment: Quantitative real-time PCR of TGF-βRII transcripts in CD4+CD25- T cells; type: cell-based, human; settings: coated anti-CD3 and DL-4 or Jagged-1 for 3 hours, in the presence of GSI
Method: FIG. 3: TGF-βRII expression on effector T cells after NOTCH ligands exposure • A) CD4^+CD25^−T cells were purified using Miltenyi microbeads from PBMC and cultured for 3 hours in coated wells with anti-CD3 (200 ng/ml) and NOTCH ligands (5 μg/ml) or IgG control (5 μg/ml). Quantitative real-time PCR was performed to measure the transcripts levels of TGF-βRII. Data shown are mean±SEM and are representative of 4 independent experiments. * indicates P<0.05. • B) Protein levels of TGF-βRII in CD4^+CD25^−T cells stimulated to DL-1, DL-4 and Jagged-1 using FACS analysis. Mean of fluorescence are represented±SEM. * indicates P<0.05.
CD4^+CD25^− T cells were cultured for 3 hours in coated wells with anti-CD3 (200 ng/ml) and NOTCH ligands (5 μg/ml) or IgG control (5 μg/ml). Total RNA was extracted with Trizol (Invitrogen) and purified by chloroform extraction. RNA was then reverse transcribed using 1 mM oligodT and the Superscript™ HH Rnase H-reverse transcriptase (Invitrogen Life technologies) according to the manufacturer's instructions. Quantitative PCR was performed in a LightCycler System (Roche diagnostics) using a SYBR Green PCR kit from Roche Diagnostics. The cDNA input for each population was normalized to obtain equivalent signals with Splicing Factor 3A1 (SF3A1) used as housekeeping gene. Primers used were: […]
Active TGF-β mediates its biological functions by binding to TGF-β type I and type II receptors (TGF-βRII). Therefore, the effects of NOTCH activation on TGF-βRII expression of effector T cells were first investigated. […] This effect is abrogated in the presence of GSI (P<0.05 for comparison with culture performed without GSI vehicle).

[2] = biological target: NOTCH on human CD4+CD25- effector T cells; experiment: cell-based or functional assay

Percentages of inhibition of cell proliferation (CD4+CD25- T cells pre-exposed to ligand, co-cultured with Treg at ratio 1:8) [2] [%]	expression of TGF-βRII on CD4+CD25- T cells after 48 hours on ligand (flow cytometry, MFI; IgG control MFI 53) [2] [MFI]	percentage of inhibition of CD4+CD25- T cell proliferation with anti-CD3, ligand and TGF-β (0.1 ng/ml) [2] [%]	TGF-βRII RNA expression, fold increase against IgG control (real-time PCR, 3 hours) [2] [fold]	mean inhibition of T cell proliferation (co-culture with Treg at ratio 1:16 on immobilized ligand) [2] [%]	Compound	Treg-mediated suppression (percentage of inhibition of CD4+CD25- T cell proliferation) ([1]; Treg/Effector ratio 1:4) [%]	Treg-mediated suppression (percentage of inhibition of CD4+CD25- T cell proliferation) ([1]; Treg/Effector ratio 1:8) [%]	Effect on proliferation of CD4+CD25- T cells cultured alone ([1]; no Treg, data not shown)	Effect of GSI on the DL-4 / Jagged-1 induced increase in TGF-βRII RNA expression (TGF-βRII RNA expression)
					C[C@H](NC(=O)Cc1cc(F)cc(F)c1)C(=O)N[C@H]1N=C(c2ccccc2)c2ccccc2N(C)C1=O [GSI, Compound E]	46.9	49.3	did not affect the proliferation	abrogated
64.8	85	42.9			DL-1-Fc (from UniProt O00548 18-545) (Fc fusion)				
64.2	166	74.1	4.4	47	DL-4-Fc (from UniProt Q9NR61 27-529) (Fc fusion)				
65	130	87.8	2.8	65	Jagged-1-Fc (from UniProt P78504 34-1067) (Fc fusion)				
